From the supplement of paper PMC7877785
± gives the uncertainty stated by the source.

Test: self-splicing fitness, log relative to wild type (ln ratio); higher = more splicing; Tetrahymena group I intron in knt gene, E. coli kanamycin selection, DiMSum; sequences stand for … in CUCUCU…GGAGGGAAAAGUUAUCAGGCAUGCACCUGGUAGCUAGUCUUUAAACCAAUAGAUUGCAUCGGUUUAAAAGGCAAGACCGUCAAAUUGCGGGAAAGGGGUCAACAGCCGUUCAGUACCAAGUCUCAGGGGAAACUUUGAGAUGGCCUUGCAAAGGGUAUGGUAAUAAGCUGACGGACAUGGUCCUAACCACGCAGCCAAGUCCUAAGUCAACAGAUCUUCUGUUGAUAUGGAUGCAGUUCACAGACUAAAUGUCGGUCGGGGAAGAUGUAUUCUUCUCAUAAGAUAUAGUCGGACCUCUCCUUAAUGGGAGCUAGCGGAUGAAGUGAUGCAACACUGGAGCCGCUGGGAACUAAUUUGUAUGCGAAAGUAUAUUGAUUAGUUUUGGAGUACUCGUGGUCG
In short: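 Library with all eight P1ex-region intron nucleotides randomised, intron inside the knt kanamycin-resistance gene on pET-22b(+), in E. coli BL21(DE3). Cells grew overnight at 37°C or 30°C on LB agar with or without 25 μg/mL kanamycin (plus 100 μg/mL carbenicillin, 50 μM IPTG, 0.2% rhamnose), in six replicate transformations. Pooled colonies were amplicon-sequenced on Illumina HiSeq 2500. DiMSum fitness is the error-weighted combination of wild-type-normalised replicate fold changes, kanamycin versus none.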

Row | Sequence | self-splicing fitness (ln) (30 °C) | self-splicing fitness (ln) (37 °C)
1 | GGAGAGCAAUAUUACGGUUC | -1.36 ± 0.38 | –
2 | ACCAAGCAAUAUUACGAGAG | -3.53 ± 0.2 | -2.3 ± 0.17
3 | AUACAGCAAUAUUACGUUGG | -3.51 ± 0.14 | -2.87 ± 0.16
4 | UCAAAGCAAUAUUACGUGAG | -0.64 ± 0.046 | -0.25 ± 0.071
5 | GCACAGCAAUAUUACGGACC | -1.43 ± 0.11 | 0.156 ± 0.14
6 | UGGUAGCAAUAUUACGGUCC | -2.05 ± 0.29 | -1.24 ± 0.33
7 | GAGUAGCAAUAUUACGCGAG | -3.35 ± 0.16 | -0.947 ± 0.1
8 | UAGAAGCAAUAUUACGGAGC | – | -3.93 ± 0.46
9 | ACCCAGCAAUAUUACGCAAC | -2.62 ± 0.12 | -0.73 ± 0.11
10 | CAACAGCAAUAUUACGAGAA | -2.7 ± 0.39 | -0.546 ± 0.21
11 | CACAAGCAAUAUUACGCGCU | -4.44 ± 0.27 | -2.33 ± 0.18
12 | GCAAAGCAAUAUUACGCUGU | -3.42 ± 0.26 | -2.84 ± 0.31
13 | UAGUAGCAAUAUUACGAUGU | – | -2.22 ± 0.32
14 | AGAGAGCAAUAUUACGUCAG | -0.659 ± 0.45 | –
15 | GGACAGCAAUAUUACGGCCC | -1.7 ± 0.46 | –
16 | CCCGAGCAAUAUUACGGGGG | -3.59 ± 0.16 | -2.89 ± 0.27
17 | UGACAGCAAUAUUACGAUGC | -3.94 ± 0.28 | -2.72 ± 0.28
18 | GAAUAGCAAUAUUACGGUCG | -0.153 ± 0.098 | -0.479 ± 0.12
19 | CAUGAGCAAUAUUACGCUUG | -2.74 ± 0.14 | -2.97 ± 0.21
20 | GCCAAGCAAUAUUACGCAGU | -2.82 ± 0.13 | -1.22 ± 0.14
21 | UUCUAGCAAUAUUACGUGUU | -3.36 ± 0.17 | -3.2 ± 0.19
22 | GCAGAGCAAUAUUACGCUAU | -2.9 ± 0.33 | -1.32 ± 0.28
23 | CGAAAGCAAUAUUACGGGGG | -2.85 ± 0.14 | -1.96 ± 0.13
24 | UUUCAGCAAUAUUACGAGUG | -0.489 ± 0.094 | -0.205 ± 0.11
25 | AGUGAGCAAUAUUACGGACC | -0.918 ± 0.22 | -0.539 ± 0.33

Row | Sequence | self-splicing fitness (ln) (30 °C) | self-splicing fitness (ln) (37 °C)
26 | CAGGAGCAAUAUUACGAAAG | -1.8 ± 0.17 | -1.11 ± 0.23
27 | GGGCAGCAAUAUUACGCGGG | -1.76 ± 0.16 | -1.21 ± 0.2
28 | GCCAAGCAAUAUUACGGAUU | -1.2 ± 0.056 | -0.294 ± 0.08
29 | CUCUAGCAAUAUUACGUCCU | -2.87 ± 0.39 | –
30 | CGUGAGCAAUAUUACGAGGG | -3.77 ± 0.3 | -2.36 ± 0.25
31 | AACGAGCAAUAUUACGACAC | – | -1.46 ± 0.32
32 | UGGGAGCAAUAUUACGAAAU | -1.47 ± 0.19 | –
33 | AAUAAGCAAUAUUACGUGAC | -2.18 ± 0.2 | -2.76 ± 0.35
34 | GCUAAGCAAUAUUACGAGUC | -3.37 ± 0.21 | -1.96 ± 0.22
35 | AUUAAGCAAUAUUACGCUCC | -1.04 ± 0.23 | -0.859 ± 0.29
36 | UUCGAGCAAUAUUACGGUUU | -4.44 ± 0.36 | -1.93 ± 0.22
37 | AAGUAGCAAUAUUACGGCAA | 0.196 ± 0.18 | -0.154 ± 0.22
38 | CACAAGCAAUAUUACGUUCA | -1.31 ± 0.084 | -1.49 ± 0.089
39 | GUUGAGCAAUAUUACGUGAG | -1.93 ± 0.15 | -1.42 ± 0.19
40 | GGUGAGCAAUAUUACGAGGG | -3.16 ± 0.26 | -2.43 ± 0.24
41 | GCUUAGCAAUAUUACGAGCA | -2.24 ± 0.14 | -0.963 ± 0.13
42 | ACUGAGCAAUAUUACGGGUG | -2.49 ± 0.15 | -1.38 ± 0.15
43 | GCCGAGCAAUAUUACGCGUC | -0.898 ± 0.14 | -0.0598 ± 0.2
44 | UGAUAGCAAUAUUACGGAGA | -2.83 ± 0.33 | -1.68 ± 0.42
45 | GAGUAGCAAUAUUACGUCGA | -1.43 ± 0.15 | -0.114 ± 0.14
46 | UACCAGCAAUAUUACGUAAC | -2.64 ± 0.13 | -2.18 ± 0.2
47 | CUGAAGCAAUAUUACGUGGG | -2.66 ± 0.095 | -1.89 ± 0.11
48 | CGCUAGCAAUAUUACGUAGG | -1.4 ± 0.058 | -0.925 ± 0.081
49 | CCCUAGCAAUAUUACGUUAG | -3.73 ± 0.22 | -2.36 ± 0.18
50 | CCUUAGCAAUAUUACGUAAU | -3.24 ± 0.29 | -1.81 ± 0.16

Row | Sequence | self-splicing fitness (ln) (30 °C) | self-splicing fitness (ln) (37 °C)
51 | CUGUAGCAAUAUUACGAAGA | – | -2.29 ± 0.29
52 | GCUAAGCAAUAUUACGAUAG | -1.25 ± 0.13 | -1.63 ± 0.17
53 | AGUCAGCAAUAUUACGGGCU | -2.43 ± 0.19 | -3.12 ± 0.43
54 | CGCAAGCAAUAUUACGUACC | -3.02 ± 0.17 | -1.8 ± 0.17
55 | UCACAGCAAUAUUACGUCGU | -3.62 ± 0.19 | -1.49 ± 0.22
56 | CACCAGCAAUAUUACGUUCU | -3.76 ± 0.17 | -2.65 ± 0.14
57 | AUAGAGCAAUAUUACGUUGU | -1.96 ± 0.066 | -1.52 ± 0.07
58 | AUUAAGCAAUAUUACGAGGU | -2.83 ± 0.24 | -2.1 ± 0.31
59 | AGGUAGCAAUAUUACGGACC | -0.613 ± 0.019 | -0.424 ± 0.037
60 | GGAUAGCAAUAUUACGGCGG | -1.95 ± 0.14 | -0.444 ± 0.13
61 | ACUGAGCAAUAUUACGAGAU | -4.18 ± 0.33 | -2.27 ± 0.21
62 | GGCAAGCAAUAUUACGUUUG | -3 ± 0.13 | -2.83 ± 0.22
63 | GUACAGCAAUAUUACGGCAA | -1.59 ± 0.15 | -1.32 ± 0.12
64 | UGGCAGCAAUAUUACGGUCU | -0.537 ± 0.066 | 0.29 ± 0.087
65 | UGACAGCAAUAUUACGAUUG | -0.875 ± 0.061 | -0.525 ± 0.067
66 | CUAAAGCAAUAUUACGCUAA | -5.16 ± 0.45 | –
67 | GGACAGCAAUAUUACGGCAG | -3.87 ± 0.14 | -2.45 ± 0.1
68 | CCAAAGCAAUAUUACGGCUA | -4.05 ± 0.43 | -2.28 ± 0.28
69 | CCGAAGCAAUAUUACGUAAU | -3.37 ± 0.24 | -2.54 ± 0.18
70 | GUACAGCAAUAUUACGAUAU | -2.07 ± 0.1 | -1.48 ± 0.13
71 | GUCGAGCAAUAUUACGCUUA | -1.12 ± 0.13 | -0.065 ± 0.12
72 | CUUUAGCAAUAUUACGGUCC | – | -1.77 ± 0.32
73 | CCAGAGCAAUAUUACGAUUG | -1.42 ± 0.11 | -0.92 ± 0.14
74 | GAGCAGCAAUAUUACGACGA | -0.16 ± 0.15 | 0.077 ± 0.17
75 | AGACAGCAAUAUUACGCGCC | -0.399 ± 0.14 | -0.637 ± 0.12

Row | Sequence | self-splicing fitness (ln) (30 °C) | self-splicing fitness (ln) (37 °C)
76 | CCUAAGCAAUAUUACGGCGU | -4.15 ± 0.3 | -2.49 ± 0.24
77 | UAACAGCAAUAUUACGUAGC | -3.86 ± 0.17 | -2.02 ± 0.11
78 | AAUCAGCAAUAUUACGGUCG | -0.214 ± 0.048 | 0.0375 ± 0.065
79 | AUGAAGCAAUAUUACGCACA | 0.703 ± 0.097 | 0.63 ± 0.14
80 | UGAUAGCAAUAUUACGGCUC | -2.21 ± 0.15 | -1.29 ± 0.17
81 | GUCUAGCAAUAUUACGUGAA | -0.302 ± 0.1 | 0.449 ± 0.097
82 | CCCCAGCAAUAUUACGCAAA | -3.28 ± 0.14 | -2.44 ± 0.18
83 | UCAGAGCAAUAUUACGAGGG | -2.95 ± 0.16 | -1.94 ± 0.16
84 | UUUAAGCAAUAUUACGCGAU | -3.34 ± 0.43 | -2.32 ± 0.29
85 | UGUGAGCAAUAUUACGGCGG | -2.35 ± 0.2 | -0.738 ± 0.19
86 | CCCUAGCAAUAUUACGACAC | – | -2.32 ± 0.28
87 | GUAAAGCAAUAUUACGGGCA | -0.131 ± 0.13 | -0.0319 ± 0.15
88 | GGGCAGCAAUAUUACGAGUC | -1.84 ± 0.21 | -1.81 ± 0.28
89 | AUAUAGCAAUAUUACGUAGU | -2.39 ± 0.14 | -0.774 ± 0.14
90 | UUACAGCAAUAUUACGCCUU | -2.35 ± 0.22 | -0.83 ± 0.17
91 | GUAGAGCAAUAUUACGCAUU | -2.45 ± 0.18 | -0.619 ± 0.25
92 | AGGUAGCAAUAUUACGACUG | -0.0476 ± 0.015 | -0.0252 ± 0.034
93 | AGCGAGCAAUAUUACGGAGU | -3.99 ± 0.28 | -3.15 ± 0.3
94 | ACCCAGCAAUAUUACGUCGC | -1.39 ± 0.069 | -0.784 ± 0.076
95 | CGUAAGCAAUAUUACGUAGU | -3.74 ± 0.27 | -1.48 ± 0.18
96 | GCAUAGCAAUAUUACGUUUG | -3.21 ± 0.13 | -1.91 ± 0.15
97 | CUAUAGCAAUAUUACGGUGA | -3.35 ± 0.18 | -2.59 ± 0.23
98 | UCGAAGCAAUAUUACGCUUU | -4.08 ± 0.3 | -2.94 ± 0.35
99 | CACGAGCAAUAUUACGGCGG | -2.37 ± 0.092 | -1.14 ± 0.11
